Source: patent publication US20230081195A1 (INSTITUTE OF GENETICS AND DEVELOPMENT BIOLOGY CHINESE …, published 2023)

Legend:
[1] = biological target: T1, OML4-nLUC (rice; firefly, UniProt Q64M78 1-1001); assay: firefly luciferase complementation imaging in N. benthamiana leaves
T1 construct: Co-expressed in N. benthamiana leaves; Order of the pieces follows the printed name; not shown: N-terminal fragment of firefly luciferase (nLUC)
T1 sequence: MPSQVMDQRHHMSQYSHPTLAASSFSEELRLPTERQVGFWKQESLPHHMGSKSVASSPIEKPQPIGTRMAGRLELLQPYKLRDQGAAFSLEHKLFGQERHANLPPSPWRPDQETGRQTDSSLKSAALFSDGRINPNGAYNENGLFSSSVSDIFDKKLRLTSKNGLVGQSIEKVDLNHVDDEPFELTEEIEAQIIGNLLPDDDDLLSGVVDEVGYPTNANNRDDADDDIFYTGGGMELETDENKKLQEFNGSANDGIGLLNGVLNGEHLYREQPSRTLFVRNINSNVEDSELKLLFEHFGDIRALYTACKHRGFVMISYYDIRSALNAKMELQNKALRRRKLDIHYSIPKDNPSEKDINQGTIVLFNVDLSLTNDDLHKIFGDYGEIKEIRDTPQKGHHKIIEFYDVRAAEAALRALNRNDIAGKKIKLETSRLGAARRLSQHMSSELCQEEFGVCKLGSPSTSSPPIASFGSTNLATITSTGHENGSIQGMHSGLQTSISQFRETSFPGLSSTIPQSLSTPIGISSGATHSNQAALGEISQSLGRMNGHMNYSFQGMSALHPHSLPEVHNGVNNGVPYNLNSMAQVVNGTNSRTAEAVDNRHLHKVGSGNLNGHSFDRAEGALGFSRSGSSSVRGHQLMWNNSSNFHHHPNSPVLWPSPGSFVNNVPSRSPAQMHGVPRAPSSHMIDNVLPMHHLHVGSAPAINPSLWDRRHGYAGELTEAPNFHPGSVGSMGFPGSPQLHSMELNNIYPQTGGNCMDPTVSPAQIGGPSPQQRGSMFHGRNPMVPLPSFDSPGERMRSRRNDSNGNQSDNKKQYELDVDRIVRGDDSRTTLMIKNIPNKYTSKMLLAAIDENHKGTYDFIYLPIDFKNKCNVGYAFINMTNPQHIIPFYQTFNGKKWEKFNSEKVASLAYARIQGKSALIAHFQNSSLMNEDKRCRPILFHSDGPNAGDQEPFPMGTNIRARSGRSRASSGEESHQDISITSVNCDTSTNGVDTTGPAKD
Protocol: (§1) (A) OML4 interacts with GSK2 in yeast cells. Yeast cells were cultured on SD/-Trp-Leu or SD/-Trp-Leu-His-Ade media. (B) OML4 associates with GSK2 in N. benthamiana. OML4-nLUC and GSK2-cLUC were co-expressed in N. benthamiana leaves. Luciferase activity was observed 48 hours after infiltration. The range of luminescence intensity was scaled by the pseudocolor bar. (C) Bimolecular fluorescence complementation (BiFC) assays shown that OML4 interacts with GSK2 in N. benthamiana. OML4-cYFP was coexpressed with GSK2-nYFP in leaves of N. benthamiana. (D) OML4 binds GSK2 in vitro. GSK2-GST was incubated with OML4-MBP and pulled down by OML4-MBP and detected by immunoblot with anti-GST antibody. IB: immunoblot. (E) Interaction between OML4 and GSK2 in the Co-IP assays. Anti-MYC beads were used to immunoprecipitate GSK2-GFP proteins. Gel blots were probed with anti-MYC or anti-GFP antibody. Bars: 50 μm in C.
(§2) We next verified the interaction between OML4 and GSK2 in plant cells using the firefly luciferase (LUC) complementation imaging assay (FIG. 5B). The OML4-nLUC and GSK2-cLUC were transformed and co-expressed in N. benthamiana leaves. […] We then performed bimolecular fluorescence complementation (BiFC) assay to test the interaction between OML4 and GSK2 in plant cells (FIG. 5C). […]

[2] = biological target: T2, nLUC (firefly, UniProt P08659 1-416 = luciferase); assay: firefly luciferase complementation imaging, co-expression in N. benthamiana leaves
T2 construct: Control of the luciferase complementation imaging assay
T2 sequence (P08659 1-416): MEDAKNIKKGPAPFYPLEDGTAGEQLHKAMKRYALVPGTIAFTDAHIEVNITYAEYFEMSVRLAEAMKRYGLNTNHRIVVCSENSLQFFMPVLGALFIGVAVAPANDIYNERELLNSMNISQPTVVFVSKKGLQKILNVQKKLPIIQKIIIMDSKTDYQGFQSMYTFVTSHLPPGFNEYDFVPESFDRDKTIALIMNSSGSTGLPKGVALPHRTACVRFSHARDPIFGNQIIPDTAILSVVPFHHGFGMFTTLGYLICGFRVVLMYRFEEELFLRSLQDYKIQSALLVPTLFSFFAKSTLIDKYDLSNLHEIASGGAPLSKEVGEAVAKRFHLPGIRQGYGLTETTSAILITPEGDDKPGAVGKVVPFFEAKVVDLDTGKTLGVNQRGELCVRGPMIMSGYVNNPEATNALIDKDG
Protocol: as §1, §2

binding result [1]: binds
binding result [2]: no binding
B1: GSK2-cLUC (enzyme)
chain: MDQPAPAPEPMLLDAQPPAAVACDKKQQEGEAPYAEGNDAVTGHIISTTIGGKNGEPKRTISYMAERVVGTGSFGIVFQAKCLETGETVAIKKVLQDRRYKNRELQLMRAMDHPNVISLKHCFFSTTSRDELFLNLVMEYVPETLYRVLKHYSNANHRMPLIYVKLYMYQLFRGLAYIHTVPGVCHRDVKPQNVLVDPLTHQVKLCDFGSAKTLVPGEPNISYICSRYYRAPELIFGATEYTTSIDIWSAGCVLAELLLGQPLFPGESAVDQLVEIIKVLGTPTREEIRCMNPNYTEFRFPQIKAHPWHKVFHKRMPPEAIDLASRLLQYSPSLRCTALDACAHPFFDELREPNARLPNGRPFPPLFNFKHELANSSQELISRLIPEHVRRQATHNFFNTGS
notes: Co-expressed in N. benthamiana leaves; Order of the pieces follows the printed name; not shown: C-terminal fragment of firefly luciferase (cLUC)
